In patent US20210032299A1 (Eli Lilly, published 2021):
Starred links: 1 amine or outer side, 2 acyl side, 3 side chain; linkers in the order of their positions; H or OH if unused. Non-standard residues stand in square brackets, D forms with d. Groups on a side chain read outwards from the residue. No end group written: not given here. *: point of attachment. C20 diacid = O=C(O)CCCCCCCCCCCCCCCCCCC(=O)*; γGlu = O=C(O)[C@H](CCC(=O)[*:2])N[*:1]; 4Pal = N[C@@H](Cc1ccncc1)C(=O)O; αMeL = CC(C)C[C@](C)(N)C(=O)O; AEEA = NCCOCCOCC(=O)O; Aib = CC(C)(N)C(=O)O

Experiments:
Assay in all cases: cell-based or functional assay
human glucagon receptor = human glucagon receptor (human, UniProt P47871 26-477)
[1] = target: T1, human glucose-dependent insulinotropic peptide receptor (human, UniProt P48546 22-466)
T1 sequence (looked up): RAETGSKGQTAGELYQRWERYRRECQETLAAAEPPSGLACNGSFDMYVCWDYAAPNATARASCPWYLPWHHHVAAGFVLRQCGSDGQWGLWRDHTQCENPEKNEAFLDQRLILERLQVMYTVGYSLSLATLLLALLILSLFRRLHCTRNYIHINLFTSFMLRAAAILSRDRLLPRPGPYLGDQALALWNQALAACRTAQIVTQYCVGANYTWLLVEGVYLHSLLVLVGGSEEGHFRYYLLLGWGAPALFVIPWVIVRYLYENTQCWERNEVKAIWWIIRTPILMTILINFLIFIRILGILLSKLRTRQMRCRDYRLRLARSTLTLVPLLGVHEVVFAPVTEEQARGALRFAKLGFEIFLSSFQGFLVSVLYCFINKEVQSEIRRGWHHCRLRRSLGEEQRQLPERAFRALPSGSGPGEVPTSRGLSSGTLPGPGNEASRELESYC

human GLP-1 receptor = human GLP-1 receptor (human, UniProt P43220 24-463)

Chain of human glucagon receptor (P47871 26-477): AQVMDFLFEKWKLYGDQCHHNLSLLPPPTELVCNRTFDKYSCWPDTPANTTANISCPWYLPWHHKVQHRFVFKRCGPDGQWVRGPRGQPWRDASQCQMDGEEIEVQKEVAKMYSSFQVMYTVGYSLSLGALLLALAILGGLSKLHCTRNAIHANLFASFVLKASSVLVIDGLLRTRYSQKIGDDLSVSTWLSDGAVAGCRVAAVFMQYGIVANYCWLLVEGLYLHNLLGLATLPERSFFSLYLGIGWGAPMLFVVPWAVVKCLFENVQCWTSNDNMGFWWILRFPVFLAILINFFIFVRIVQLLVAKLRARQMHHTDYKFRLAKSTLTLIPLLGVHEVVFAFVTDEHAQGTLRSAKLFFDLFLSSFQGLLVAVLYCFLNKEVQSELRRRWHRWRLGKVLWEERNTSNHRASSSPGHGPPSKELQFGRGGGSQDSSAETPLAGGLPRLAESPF

B1: GIP(1-42)-NH2 (ligand)
peptide: YAEGTFISDYSIAMDKIHQQDFVNWLLAQKGKKNDWKHNITQ-NH2
hGcgR cAMP Rel EC50 (human glucagon receptor): > 5000 nM

B2: Example 1 (peptide)
peptide: YXEGTFISDYSILLDKKAQXDFVNWLLAQGPSSGAPPPS
modifications: D-Ala2; K17((2-[2-(2-Amino-ethoxy)-ethoxy]-acetyl)2-(γ-Glu)-CO-(CH2)18-CO2H); Aib20; C-terminal amide
hGcgR cAMP Rel EC50 (human glucagon receptor): 575 nM
hGIPR cAMP Rel EC50 [1]: 0.0476 nM
hGLP1R cAMP Rel EC50 (human GLP-1 receptor): > 5000 nM

B3: Example 2 (peptide)
peptide: YXEGTFISDYSILLDKKAQXDFVNWLLAQGPSSGAPPPS
modifications: D-Ala2; K17((2-[2-(2-Amino-ethoxy)-ethoxy]-acetyl)2-(γ-Glu)-CO-(CH2)16-CO2H); Aib20; C-terminal amide
hGcgR cAMP Rel EC50 (human glucagon receptor): 608 nM
hGIPR cAMP Rel EC50 [1]: 0.0123 nM
hGLP1R cAMP Rel EC50 (human GLP-1 receptor): > 5000 nM

B4: Example 3 (peptide)
peptide: Y[Aib]EGTFISDYSI[αMeL]LDKK([AEEA-AEEA-γGlu-C20 diacid])HQ[Aib]DFVE[4Pal]LLEAGPSSGAPPPS-NH2
modifications: N-terminus assumed
SMILES: CC[C@H](C)[C@H](NC(=O)[C@H](Cc1ccccc1)NC(=O)[C@@H](NC(=O)CNC(=O)[C@H](CCC(=O)O)NC(=O)C(C)(C)NC(=O)[C@@H](N)Cc1ccc(O)cc1)[C@@H](C)O)C(=O)N[C@@H](CO)C(=O)N[C@@H](CC(=O)O)C(=O)N[C@@H](Cc1ccc(O)cc1)C(=O)N[C@@H](CO)C(=O)N[C@H](C(=O)N[C@@](C)(CC(C)C)C(=O)N[C@@H](CC(C)C)C(=O)N[C@@H](CC(=O)O)C(=O)N[C@@H](CCCCN)C(=O)N[C@@H](CCCCNC(=O)COCCOCCNC(=O)COCCOCCNC(=O)CC[C@H](NC(=O)CCCCCCCCCCCCCCCCCCC(=O)O)C(=O)O)C(=O)N[C@@H](Cc1c[nH]cn1)C(=O)N[C@@H](CCC(N)=O)C(=O)NC(C)(C)C(=O)N[C@@H](CC(=O)O)C(=O)N[C@@H](Cc1ccccc1)C(=O)N[C@H](C(=O)N[C@@H](CCC(=O)O)C(=O)N[C@@H](Cc1ccncc1)C(=O)N[C@@H](CC(C)C)C(=O)N[C@@H](CC(C)C)C(=O)N[C@@H](CCC(=O)O)C(=O)N[C@@H](C)C(=O)NCC(=O)N1CCC[C@H]1C(=O)N[C@@H](CO)C(=O)N[C@@H](CO)C(=O)NCC(=O)N[C@@H](C)C(=O)N1CCC[C@H]1C(=O)N1CCC[C@H]1C(=O)N1CCC[C@H]1C(=O)N[C@@H](CO)C(N)=O)C(C)C)[C@@H](C)CC
hGcgR cAMP Rel EC50 (human glucagon receptor): 1250 nM
hGIPR cAMP Rel EC50 [1]: 0.0178 nM
hGLP1R cAMP Rel EC50 (human GLP-1 receptor): > 5000 nM

B5: Example 8 (peptide)
peptide: Y[Aib]EGTFISDYSILLDKK([AEEA-AEEA-γGlu-C20 diacid])AQ[Aib]DFVNWLLAQGPSSGAPPPS-NH2
modifications: N-terminus assumed
SMILES: CC[C@H](C)[C@H](NC(=O)[C@H](CO)NC(=O)[C@H](Cc1ccc(O)cc1)NC(=O)[C@H](CC(=O)O)NC(=O)[C@H](CO)NC(=O)[C@@H](NC(=O)[C@H](Cc1ccccc1)NC(=O)[C@@H](NC(=O)CNC(=O)[C@H](CCC(=O)O)NC(=O)C(C)(C)NC(=O)[C@@H](N)Cc1ccc(O)cc1)[C@@H](C)O)[C@@H](C)CC)C(=O)N[C@@H](CC(C)C)C(=O)N[C@@H](CC(C)C)C(=O)N[C@@H](CC(=O)O)C(=O)N[C@@H](CCCCN)C(=O)N[C@@H](CCCCNC(=O)COCCOCCNC(=O)COCCOCCNC(=O)CC[C@H](NC(=O)CCCCCCCCCCCCCCCCCCC(=O)O)C(=O)O)C(=O)N[C@@H](C)C(=O)N[C@@H](CCC(N)=O)C(=O)NC(C)(C)C(=O)N[C@@H](CC(=O)O)C(=O)N[C@@H](Cc1ccccc1)C(=O)N[C@H](C(=O)N[C@@H](CC(N)=O)C(=O)N[C@@H](Cc1c[nH]c2ccccc12)C(=O)N[C@@H](CC(C)C)C(=O)N[C@@H](CC(C)C)C(=O)N[C@@H](C)C(=O)N[C@@H](CCC(N)=O)C(=O)NCC(=O)N1CCC[C@H]1C(=O)N[C@@H](CO)C(=O)N[C@@H](CO)C(=O)NCC(=O)N[C@@H](C)C(=O)N1CCC[C@H]1C(=O)N1CCC[C@H]1C(=O)N1CCC[C@H]1C(=O)N[C@@H](CO)C(N)=O)C(C)C
hGcgR cAMP Rel EC50 (human glucagon receptor): 295 nM
hGIPR cAMP Rel EC50 [1]: 0.0268 nM
hGLP1R cAMP Rel EC50 (human GLP-1 receptor): > 5000 nM

B6: Example 9 (peptide)
peptide: YXEGTFISDYSILLDKKHQXDFVNWLLAQGPSSGAPPPS
modifications: D-Ala2; K17((2-[2-(2-Amino-ethoxy)-ethoxy]-acetyl)2-(γ-Glu)-CO-(CH2)18-CO2H); Aib20; C-terminal amide
hGcgR cAMP Rel EC50 (human glucagon receptor): > 5000 nM
hGIPR cAMP Rel EC50 [1]: 0.165 nM
hGLP1R cAMP Rel EC50 (human GLP-1 receptor): > 100 nM

B7: Example 10 (peptide)
peptide: Y[dA]EGTFISDYSILLDKK([AEEA-AEEA-γGlu-C20 diacid])HQQDFVNWLLAGGPSSGAPPPS-NH2
modifications: N-terminus assumed
SMILES: CC[C@H](C)[C@H](NC(=O)[C@H](CO)NC(=O)[C@H](Cc1ccc(O)cc1)NC(=O)[C@H](CC(=O)O)NC(=O)[C@H](CO)NC(=O)[C@@H](NC(=O)[C@H](Cc1ccccc1)NC(=O)[C@@H](NC(=O)CNC(=O)[C@H](CCC(=O)O)NC(=O)[C@@H](C)NC(=O)[C@@H](N)Cc1ccc(O)cc1)[C@@H](C)O)[C@@H](C)CC)C(=O)N[C@@H](CC(C)C)C(=O)N[C@@H](CC(C)C)C(=O)N[C@@H](CC(=O)O)C(=O)N[C@@H](CCCCN)C(=O)N[C@@H](CCCCNC(=O)COCCOCCNC(=O)COCCOCCNC(=O)CC[C@H](NC(=O)CCCCCCCCCCCCCCCCCCC(=O)O)C(=O)O)C(=O)N[C@@H](Cc1c[nH]cn1)C(=O)N[C@@H](CCC(N)=O)C(=O)N[C@@H](CCC(N)=O)C(=O)N[C@@H](CC(=O)O)C(=O)N[C@@H](Cc1ccccc1)C(=O)N[C@H](C(=O)N[C@@H](CC(N)=O)C(=O)N[C@@H](Cc1c[nH]c2ccccc12)C(=O)N[C@@H](CC(C)C)C(=O)N[C@@H](CC(C)C)C(=O)N[C@@H](C)C(=O)NCC(=O)NCC(=O)N1CCC[C@H]1C(=O)N[C@@H](CO)C(=O)N[C@@H](CO)C(=O)NCC(=O)N[C@@H](C)C(=O)N1CCC[C@H]1C(=O)N1CCC[C@H]1C(=O)N1CCC[C@H]1C(=O)N[C@@H](CO)C(N)=O)C(C)C
hGcgR cAMP Rel EC50 (human glucagon receptor): > 5000 nM
hGIPR cAMP Rel EC50 [1]: 0.611 nM
hGLP1R cAMP Rel EC50 (human GLP-1 receptor): > 100 nM

B8: Example 11 (peptide)
peptide: Y[dA]EGTFISDYSILLDKK([AEEA-AEEA-γGlu-C20 diacid])AQQDFVNWLLAQGPSSGAPPPS-NH2
modifications: N-terminus assumed
SMILES: CC[C@H](C)[C@H](NC(=O)[C@H](CO)NC(=O)[C@H](Cc1ccc(O)cc1)NC(=O)[C@H](CC(=O)O)NC(=O)[C@H](CO)NC(=O)[C@@H](NC(=O)[C@H](Cc1ccccc1)NC(=O)[C@@H](NC(=O)CNC(=O)[C@H](CCC(=O)O)NC(=O)[C@@H](C)NC(=O)[C@@H](N)Cc1ccc(O)cc1)[C@@H](C)O)[C@@H](C)CC)C(=O)N[C@@H](CC(C)C)C(=O)N[C@@H](CC(C)C)C(=O)N[C@@H](CC(=O)O)C(=O)N[C@@H](CCCCN)C(=O)N[C@@H](CCCCNC(=O)COCCOCCNC(=O)COCCOCCNC(=O)CC[C@H](NC(=O)CCCCCCCCCCCCCCCCCCC(=O)O)C(=O)O)C(=O)N[C@@H](C)C(=O)N[C@@H](CCC(N)=O)C(=O)N[C@@H](CCC(N)=O)C(=O)N[C@@H](CC(=O)O)C(=O)N[C@@H](Cc1ccccc1)C(=O)N[C@H](C(=O)N[C@@H](CC(N)=O)C(=O)N[C@@H](Cc1c[nH]c2ccccc12)C(=O)N[C@@H](CC(C)C)C(=O)N[C@@H](CC(C)C)C(=O)N[C@@H](C)C(=O)N[C@@H](CCC(N)=O)C(=O)NCC(=O)N1CCC[C@H]1C(=O)N[C@@H](CO)C(=O)N[C@@H](CO)C(=O)NCC(=O)N[C@@H](C)C(=O)N1CCC[C@H]1C(=O)N1CCC[C@H]1C(=O)N1CCC[C@H]1C(=O)N[C@@H](CO)C(N)=O)C(C)C
hGcgR cAMP Rel EC50 (human glucagon receptor): 445 nM
hGIPR cAMP Rel EC50 [1]: 0.0738 nM
hGLP1R cAMP Rel EC50 (human GLP-1 receptor): > 100 nM

B9: Example 12 (peptide)
peptide: Y[dA]EGTFISDYSILLDKK([AEEA-AEEA-γGlu-C20 diacid])AQQDFVNWLLAGGPSSGAPPPS-NH2
modifications: N-terminus assumed
SMILES: CC[C@H](C)[C@H](NC(=O)[C@H](CO)NC(=O)[C@H](Cc1ccc(O)cc1)NC(=O)[C@H](CC(=O)O)NC(=O)[C@H](CO)NC(=O)[C@@H](NC(=O)[C@H](Cc1ccccc1)NC(=O)[C@@H](NC(=O)CNC(=O)[C@H](CCC(=O)O)NC(=O)[C@@H](C)NC(=O)[C@@H](N)Cc1ccc(O)cc1)[C@@H](C)O)[C@@H](C)CC)C(=O)N[C@@H](CC(C)C)C(=O)N[C@@H](CC(C)C)C(=O)N[C@@H](CC(=O)O)C(=O)N[C@@H](CCCCN)C(=O)N[C@@H](CCCCNC(=O)COCCOCCNC(=O)COCCOCCNC(=O)CC[C@H](NC(=O)CCCCCCCCCCCCCCCCCCC(=O)O)C(=O)O)C(=O)N[C@@H](C)C(=O)N[C@@H](CCC(N)=O)C(=O)N[C@@H](CCC(N)=O)C(=O)N[C@@H](CC(=O)O)C(=O)N[C@@H](Cc1ccccc1)C(=O)N[C@H](C(=O)N[C@@H](CC(N)=O)C(=O)N[C@@H](Cc1c[nH]c2ccccc12)C(=O)N[C@@H](CC(C)C)C(=O)N[C@@H](CC(C)C)C(=O)N[C@@H](C)C(=O)NCC(=O)NCC(=O)N1CCC[C@H]1C(=O)N[C@@H](CO)C(=O)N[C@@H](CO)C(=O)NCC(=O)N[C@@H](C)C(=O)N1CCC[C@H]1C(=O)N1CCC[C@H]1C(=O)N1CCC[C@H]1C(=O)N[C@@H](CO)C(N)=O)C(C)C
hGcgR cAMP Rel EC50 (human glucagon receptor): > 5000 nM
hGIPR cAMP Rel EC50 [1]: 0.0911 nM
hGLP1R cAMP Rel EC50 (human GLP-1 receptor): > 100 nM
